Measured values published in the supplement of paper PMC10724198.
± gives the standard deviation of the averaged measurements.

How the values were obtained:
[1] = tested on: Saccharomyces cerevisiae; test: protein stability index of tFT-peptide fusion (C-terminal peptide) (PSI (0-1 scale)); higher = more stable (slower turnover); settings: genetic background: wild type; temperature: 30 C
[2] = tested on: Saccharomyces cerevisiae; test: as above
Protocol: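 MPS profiling in S. cerevisiae of the tFT-X12 degron library: putative degron peptides plus stable controls, 12 aa, fused to the C-terminus of a sfGFP-mCherry timer. Cells are FACS-sorted into 8 mCherry/sfGFP bins and deep-sequenced. PSI runs from 0 (unstable) to 1 (stable). Backgrounds are wild type, das1Δ and doa10Δ at 30 °C, and wild type, das1Δ, cdc34-1 and cdc53-1 at 37 °C; 2-3 technical replicates each.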

[3] = genetic background: cdc34-1, temperature: 37 C
[4] = genetic background: cdc53-1, temperature: 37 C
[5] = genetic background: das1 deletion, temperature: 30 C
[6] = genetic background: das1 deletion, temperature: 37 C
[7] = genetic background: doa10 deletion, temperature: 30 C
[8] = genetic background: wild type, temperature: 30 C
[9] = genetic background: wild type, temperature: 37 C
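Further: PSI is a weighted mean of sequencing reads over stability bins, variants kept only with over 10 reads, mCherry proximal and sfGFP distal, peptide attached via GGGS linker.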

| Sequence | protein stability index [1] | protein stability index [2, 3] | protein stability index [2, 4] | protein stability index [2, 5] | protein stability index [2, 6] | protein stability index [2, 7] | protein stability index [2, 8] | protein stability index [2, 9] |
| --- | --- | --- | --- | --- | --- | --- | --- | --- |
| WFFRLFFLFFSG | 0.383 ± 0.0048 | 0.34 ± 0.008 | 0.335 ± 0.019 | 0.4 ± 0.028 | 0.502 ± 0.019 | 0.563 ± 0.022 | 0.371 ± 0.019 | 0.412 ± 0.02 |
| WFLMVILYTVYG | 0.299 ± 0.0077 | 0.157 ± 0.0068 | 0.2 ± 0.0073 | 0.182 ± 0.035 | 0.304 ± 0.0055 | 0.149 ± 0.033 | 0.187 ± 0.032 | 0.278 ± 0.013 |
| WGCTGGRGRLVC | 0.428 ± 0.049 | 0.69 ± 0.025 | 0.74 ± 0.013 | 0.643 ± 0.029 | 0.7405 ± 0.0052 | 0.254 ± 0.011 | 0.295 ± 0.013 | 0.555 ± 0.024 |
| WGGIASLVASAA | 0.364 ± 0.0089 | 0.36 ± 0.049 | 0.437 ± 0.1 | 0.236 ± 0.033 | 0.411 ± 0.0061 | 0.214 ± 0.006 | 0.259 ± 0.019 | 0.378 ± 0.023 |
| WLFASCVFFWSS | 0.426 ± 0.0054 | 0.447 ± 0.045 | 0.502 ± 0.0068 | 0.386 ± 0.026 | 0.525 ± 0.015 | 0.355 ± 0.0086 | 0.37 ± 0.0092 | 0.483 ± 0.011 |
| WLSFAIECGMVW | 0.357 ± 0.045 | 0.1938 ± 0.0014 | 0.28 ± 0.058 | 0.252 ± 0.023 | 0.3286 ± 0.0012 | 0.2135 ± 0.0014 | 0.249 ± 0.026 | 0.287 ± 0.032 |
| WLTCSLVFNVFW | 0.438 ± 0.0061 | 0.429 ± 0.025 | 0.455 ± 0.007 | 0.406 ± 0.014 | 0.482 ± 0.0057 | 0.448 ± 0.032 | 0.389 ± 0.026 | 0.471 ± 0.015 |
| WQSFRDKLIKGN | 0.264 ± 0.071 | 0.646 ± 0.044 | 0.716 ± 0.026 | 0.643 ± 0.028 | 0.754 ± 0.041 | 0.188 ± 0.034 | 0.204 ± 0.036 | 0.3754 ± 0.0012 |
| WRCECELASACA | 0.431 ± 0.013 | 0.458 ± 0.015 | 0.473 ± 0.027 | 0.347 ± 0.037 | 0.508 ± 0.0082 | 0.31 ± 0.0062 | 0.361 ± 0.024 | 0.486 ± 0.0079 |
| WRGALHPTPVAA | 0.339 ± 0.0086 | 0.285 ± 0.018 | 0.282 ± 0.0046 | 0.249 ± 0.035 | 0.419 ± 0.0075 | 0.198 ± 0.0084 | 0.253 ± 0.029 | 0.4 ± 0.017 |
| WSNICFWCGVWS | 0.458 ± 0.057 | 0.685 ± 0.027 | 0.826 ± 0.011 | 0.673 ± 0.038 | 0.815 ± 0.033 | 0.356 ± 0.0059 | 0.39 ± 0.024 | 0.6615 ± 0.0049 |
| WSWVFVVLRFGR | 0.527 ± 0.048 | 0.485 ± 0.035 | 0.5367 ± 0.0019 | 0.405 ± 0.027 | 0.574 ± 0.017 | 0.412 ± 0.025 | 0.394 ± 0.024 | 0.562 ± 0.014 |
| WVLFRLPYQFFS | 0.436 ± 0.0098 | 0.668 ± 0.048 | 0.707 ± 0.021 | 0.57 ± 0.038 | 0.737 ± 0.026 | 0.368 ± 0.0073 | 0.393 ± 0.022 | 0.633 ± 0.0017 |
| WWDCAVWVRCGG | 0.471 ± 0.015 | 0.477 ± 0.026 | 0.471 ± 0.0077 | 0.382 ± 0.024 | 0.5379 ± 0.0022 | 0.407 ± 0.013 | 0.382 ± 0.019 | 0.516 ± 0.012 |
| YCAMVAVGVVGG | 0.509 ± 0.03 | 0.468 ± 0.037 | 0.506 ± 0.025 | 0.329 ± 0.021 | 0.503 ± 0.0096 | 0.306 ± 0.016 | 0.334 ± 0.018 | 0.493 ± 0.012 |
| YCLSCLAKASLM | 0.28811 ± 0.00011 | 0.495 ± 0.036 | 0.606 ± 0.0019 | 0.524 ± 0.021 | 0.5686 ± 0.0039 | 0.164 ± 0.0029 | 0.19 ± 0.0066 | 0.38 ± 0.011 |
| YFCVELSVFGFF | 0.4 ± 0.036 | 0.416 ± 0.018 | 0.546 ± 0.077 | 0.37 ± 0.046 | 0.48 ± 0.018 | 0.324 ± 0.02 | 0.358 ± 0.023 | 0.476 ± 0.033 |
| YFFFLFFLLPPF | 0.374 ± 0.029 | 0.453 ± 0.045 | 0.477 ± 0.025 | 0.408 ± 0.041 | 0.505 ± 0.0069 | 0.416 ± 0.007 | 0.356 ± 0.034 | 0.498 ± 0.0073 |
| YGHLPLLVLFCV | 0.366 ± 0.049 | 0.459 ± 0.013 | 0.509 ± 0.037 | 0.352 ± 0.035 | 0.541 ± 0.013 | 0.211 ± 0.0055 | 0.237 ± 0.023 | 0.399 ± 0.022 |
| YHRKAILMCTFS | 0.443 ± 0.078 | 0.506 ± 0.044 | 0.55 ± 0.011 | 0.443 ± 0.02 | 0.5702 ± 0.0011 | 0.3072 ± 0.00055 | 0.299 ± 0.017 | 0.461 ± 0.021 |
| YIFLPIALVFFP | 0.363 ± 0.083 | 0.435 ± 0.021 | 0.536 ± 0.014 | 0.304 ± 0.037 | 0.543 ± 0.022 | 0.333 ± 0.02 | 0.319 ± 0.014 | 0.488 ± 0.015 |
| YLFFHMVVLVVV | 0.157 ± 0.018 | 0.0358 ± 0.0027 | 0.0745 ± 0.0059 | 0.118 ± 0.043 | 0.182 ± 0.0041 | 0.0943 ± 0.019 | 0.105 ± 0.048 | 0.149 ± 0.019 |
| YLGSLQVPVHLF | 0.352 ± 0.011 | 0.676 ± 0.024 | 0.725 ± 0.062 | 0.639 ± 0.022 | 0.756 ± 0.011 | 0.226 ± 0.013 | 0.255 ± 0.019 | 0.455 ± 0.011 |
| YMPKHKIQKLMQ | 0.491 ± 0.067 | 0.701 ± 0.02 | 0.728 ± 0.032 | 0.639 ± 0.023 | 0.7635 ± 0.0046 | 0.425 ± 0.012 | 0.46 ± 0.023 | 0.607 ± 0.018 |
| YMVSLSFTLVRS | 0.481 ± 0.041 | 0.382 ± 0.038 | 0.454 ± 0.054 | 0.32 ± 0.022 | 0.474 ± 0.033 | 0.297 ± 0.024 | 0.333 ± 0.013 | 0.4552 ± 0.0036 |
| YSGRYRTLVRCW | 0.33 ± 0.015 | 0.291 ± 0.011 | 0.366 ± 0.039 | 0.265 ± 0.037 | 0.4426 ± 0.0032 | 0.199 ± 0.0059 | 0.236 ± 0.033 | 0.384 ± 0.02 |
| YVCVVSVLLGLL | 0.31 ± 0.031 | 0.25 ± 0.017 | 0.319 ± 0.029 | 0.24 ± 0.026 | 0.441 ± 0.0082 | 0.19367 ± 8.4e-05 | 0.226 ± 0.015 | 0.3823 ± 0.0025 |
